Among the data in PMC5761895 are EC50 values, retold here.

pEC50: −log10 of the molar value.

This assay has as its target Fluorescently labelled replication protein A (Flu-RPA) (human) (UniProt P27694).

Recombinant human xeroderma pigmentosum group A protein (hXPA) bearing the N-terminal polyhistidine fragment, sequence (P23025 whole entry, the tested form may be a part): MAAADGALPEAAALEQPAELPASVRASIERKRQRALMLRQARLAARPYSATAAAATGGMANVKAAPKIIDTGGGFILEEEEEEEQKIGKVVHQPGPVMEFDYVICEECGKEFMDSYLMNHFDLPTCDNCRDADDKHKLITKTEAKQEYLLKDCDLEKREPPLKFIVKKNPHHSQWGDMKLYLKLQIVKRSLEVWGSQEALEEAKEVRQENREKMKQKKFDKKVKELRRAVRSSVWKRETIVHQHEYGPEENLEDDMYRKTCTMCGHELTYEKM
Fluorescently labelled replication protein A (Flu-RPA) (human), sequence (P27694 whole entry, chain 1 of 3): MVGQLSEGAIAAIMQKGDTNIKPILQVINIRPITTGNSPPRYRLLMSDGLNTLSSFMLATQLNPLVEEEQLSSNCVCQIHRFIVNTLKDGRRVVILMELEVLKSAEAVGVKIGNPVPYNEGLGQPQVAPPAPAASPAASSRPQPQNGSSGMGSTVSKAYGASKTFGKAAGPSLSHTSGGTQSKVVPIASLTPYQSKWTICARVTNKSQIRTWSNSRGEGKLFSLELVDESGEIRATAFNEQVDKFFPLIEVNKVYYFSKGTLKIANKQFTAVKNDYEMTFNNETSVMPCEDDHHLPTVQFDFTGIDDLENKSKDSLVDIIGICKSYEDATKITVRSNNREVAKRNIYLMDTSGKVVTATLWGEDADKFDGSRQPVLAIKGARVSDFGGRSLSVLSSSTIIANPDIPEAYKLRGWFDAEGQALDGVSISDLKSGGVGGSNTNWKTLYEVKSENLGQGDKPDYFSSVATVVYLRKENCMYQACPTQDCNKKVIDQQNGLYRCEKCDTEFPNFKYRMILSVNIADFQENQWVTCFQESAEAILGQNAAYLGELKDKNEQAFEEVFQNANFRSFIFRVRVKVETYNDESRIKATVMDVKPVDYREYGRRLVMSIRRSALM
Fluorescently labelled replication protein A (Flu-RPA) (human), sequence (P15927 whole entry, chain 2 of 3, further chain): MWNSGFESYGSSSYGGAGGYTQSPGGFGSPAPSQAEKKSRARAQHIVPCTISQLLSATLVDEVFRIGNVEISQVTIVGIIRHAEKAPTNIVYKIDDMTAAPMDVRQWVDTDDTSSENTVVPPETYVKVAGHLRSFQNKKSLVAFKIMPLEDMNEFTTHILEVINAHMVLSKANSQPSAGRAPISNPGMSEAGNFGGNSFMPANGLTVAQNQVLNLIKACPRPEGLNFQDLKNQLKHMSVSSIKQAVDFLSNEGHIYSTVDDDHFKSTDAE
Fluorescently labelled replication protein A (Flu-RPA) (human), sequence (P35244 whole entry, chain 3 of 3, further chain): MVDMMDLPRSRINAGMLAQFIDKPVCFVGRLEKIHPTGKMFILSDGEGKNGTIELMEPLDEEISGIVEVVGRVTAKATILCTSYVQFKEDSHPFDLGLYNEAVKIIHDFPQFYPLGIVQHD

Usually pEC50 stands for the EC50 on a negative log10 scale, so that one unit is a factor of ten. Read a low pEC50 as a large EC50. In the case of “Recombinant human xeroderma pigmentosum group A protein (hXPA) bearing the N-terminal polyhistidine fragment (from UniProt P23025 1-273) (natural protein)”, the pEC50 was 7.74.
